Test results: patent US20120064125A1 (priority 2009, published 2012)

System: USA300 strain LAC biofilm
Test: Protease and DNaseI treatment of USA300 titanium biofilms (CLSM, COMSTAT)
Assay type: cell-based, Staphylococcus aureus
Settings: 2 day biofilm, Proteinase K 2 μg/mL or DNaseI 0.5 Units/mL
Method: FIGS. 4A-B. Protease and DNaseI treatment of USA300 titanium biofilms. Biofilms of LAC with plasmid pCM12 were grown for two days on titanium. Biofilms were either untreated or grown in the presence of Proteinase K or DNaseI. For treatments, Proteinase K was added to 2 μg/mL and DNaseI was added to 0.5 Units/mL to the flow cell media. At 6 and 22 hr, CLSM images were obtained and analyzed. (FIG. 4A) Representative CLSM image reconstructions generated from a z series. Each side of the image grid square is 20 μm. (FIG. 4B) COMSTAT analysis of images represented in terms of average thickness (μm) and biomass (μm^3/μm^2). Green triangles represent untreated biofilm, red circles represent DNaseI treatment, and black squares represent Proteinase K treatment. Error bars represent standard deviation.
Biofilm Assays. For biofilms grown on glass, flow cell biofilm growth, confocal scanning laser microscopy (CSLM), and computer image analysis were performed as previously described (Boles and Horswill, 2008). […] For biofilm dispersal tests, AIP type I (AIP-I) was synthesized and quantified using an intein system (Malone et al., 2007), and biofilm dispersal tests were performed as previously described (Boles and Horswill, 2008). […] LAC biofilm integrity was monitored at 6 hr and 22 hr, and COMSTAT analysis was performed to quantify the biofilm properties. […]

B1: proteinase K: Proteinase K (Research Productions International), protease added to flow cell media (protein, UniProt P06873 106-384, looked up)
Proteinase K: AAQTNAPWGLARISSTSPGTSTYYYDESAGQGSCVYVIDTGIEASHPEFEGRAQMVKTYYYSSRDGNGHGTHCAGTVGSRTYGVAKKTQLFGVKVLDDNGSGQYSTIIAGMDFVASDKNNRNCPKGVVASLSLGGGYSSSVNSAAARLQSSGVMVAVAAGNNNADARNYSPASEPSVCTVGASDRYDRRSSFSNYGSVLDIFGPGTSILSTWIGGSTRSISGTSMATPHVAGLAAYLMTLGKTTAASACRYIADTANKGDLSNIPFGTVNLLAYNNYQA
LAC biomass detached from the titanium surface (6 hr): approximately 93% | LAC biomass detached from the titanium surface (22 hr): all of the LAC biomass had detached
